A word on the IC50: it is the concentration at which inhibition is half-maximal.

Data on 1 substance can be found in patent US9926369B2, “Methods for treating hepatocellular cancer by administering an anti-Ang-2 antibody” (Regeneron Pharmaceuticals, Inc., priority 2009, dated 2018).

The target of this assay is T1, hAng-2 WT binding to Tie-2 (Homo sapiens, UniProt O15123).
T1 construct: Full-length human Ang-2 or Ang-1 protein conjugated to 6× histidine tag (R&D Systems, Minneapolis, Minn.); purchased R&D Systems
T1 sequence (O15123 19-496): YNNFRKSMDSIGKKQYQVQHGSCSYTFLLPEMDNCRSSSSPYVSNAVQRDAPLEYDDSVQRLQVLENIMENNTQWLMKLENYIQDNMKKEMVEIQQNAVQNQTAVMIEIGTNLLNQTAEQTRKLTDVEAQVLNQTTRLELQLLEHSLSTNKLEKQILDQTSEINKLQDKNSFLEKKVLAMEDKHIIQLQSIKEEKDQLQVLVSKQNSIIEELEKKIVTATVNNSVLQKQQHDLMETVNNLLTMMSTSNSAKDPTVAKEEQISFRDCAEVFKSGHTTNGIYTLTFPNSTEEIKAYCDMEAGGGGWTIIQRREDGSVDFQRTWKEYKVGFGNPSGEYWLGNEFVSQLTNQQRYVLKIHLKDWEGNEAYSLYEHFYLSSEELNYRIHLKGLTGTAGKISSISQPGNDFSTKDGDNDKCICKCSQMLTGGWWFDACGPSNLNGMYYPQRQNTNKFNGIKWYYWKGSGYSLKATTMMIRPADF
Briefly: ELISA blocking of full-length hAng-2 WT binding to hTie-2-mFc. In kind it is biochemical. Here is the method:
The ELISA experiments shown in this Example were conducted in a similar manner to the experiments of Example 5. Briefly, hTie-2-mFc (a chimeric construct consisting of human Tie-2 conjugated to mouse IgG; SEQ ID NO:525) was coated onto 96-well plates at a concentration of 2 μg/ml and incubated overnight followed by washing four times in wash buffer (PBS with 0.05% Tween-20). The plate was then blocked with PBS (Irvine Scientific, Santa Ana, Calif.) containing 0.5% BSA (Sigma-Aldrich Corp., St. Louis, Mo.) for one hour at room temperature. In a separate plate, purified anti-Ang-2 antibodies and control constructs, at a starting concentration of 300 nM, were serially diluted by a factor of three across the plate. Full-length human Ang-2 or Ang-1 protein conjugated to 6× histidine tag (R&D Systems, Minneapolis, Minn.) were added to a final concentration of 0.6 nM and incubated for one hour at room temperature. The antibody/antigen mixture was then added to the plate containing hTie-2-mFc and incubated for one hour at room temperature. Detection of Ang-2-His or Ang-1-His bound to hTie-2-mFc protein was determined with Horse-Radish Peroxidase (HRP) conjugated to a-Penta-His antibody (Qiagen, Valencia, Calif.) and developed by standard colorimetric response using tetramethylbenzidine (TMB) substrate (BD Biosciences, San Jose, Calif.). Absorbance was read at OD450 for 0.1 sec. […]
For orientation: An ELISA detects its analyte on a solid surface through an enzyme-linked reagent.

As for “H1H685P: human anti-Ang-2 antibody, HCVR/LCVR SEQ ID NOs 18/20; also referred to as mAb1 [Antibody H1H685P]”, the IC50 (0.6 nM hAng-2-His, read-out: (1) Blocking hAng-2 WT to Tie-2 IC50) is 0.129 nM. Also, the “(3) Fold Difference in hAng-1 Blocking IC50 Compared to h-Ang-2 Blocking IC50” value (hAng-1 blocking IC50 divided by hAng-2 blocking IC50) is listed as over 2318.
